# Data from article PMC4368675, “A Single parS Sequence from the Cluster of Four Sites Closest to oriC Is Necessary and Sufficient for Proper Chromosome Segregation in Pseudomonas aeruginosa”.
# T1: ParB (Pseudomonas aeruginosa, UniProt Q9HT12 1-290)
# T1 sequence: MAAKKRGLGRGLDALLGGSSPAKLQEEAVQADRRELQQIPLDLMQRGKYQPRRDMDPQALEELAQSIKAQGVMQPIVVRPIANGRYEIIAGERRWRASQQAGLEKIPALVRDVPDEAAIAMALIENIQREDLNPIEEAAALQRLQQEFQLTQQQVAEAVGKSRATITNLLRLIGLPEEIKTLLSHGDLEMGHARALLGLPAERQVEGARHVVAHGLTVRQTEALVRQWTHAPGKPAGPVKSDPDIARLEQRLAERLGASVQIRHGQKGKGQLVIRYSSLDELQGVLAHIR
# Columns and labels:
# ParB [1] = biological target: T1, ParB; assay: EMSA; hierarchy: below parS1/4, equal to parS7, parS8; 10 mM Tris-HCl pH 7.5, 0.5 mM DTT, 50 mM KCl, 1 mM MgCl2, 20 ul, 6 pmol labelled DNA, 18 pmol nonspecific competitor (titrations) or 240 pmol ParB plus 18-180 pmol unlabelled parS2 (dissociation), 15 min 37 C; 5% PAGE in 0.5x TBE; settings: protein: recombinant; tags: His6 (pET28-derived pKLB28); chain copies: 2; label: 5'-Cy3 on strand 1; 5' overhang 4 nt at both ends
# ParB [2] = biological target: T1, ParB; assay: EMSA; hierarchy: below parS7-9, above parS6; 10 mM Tris-HCl pH 7.5, 0.5 mM DTT, 50 mM KCl, 1 mM MgCl2, 20 ul, 6 pmol labelled DNA, 18 pmol nonspecific competitor (titrations) or 240 pmol ParB plus 18-180 pmol unlabelled parS2 (dissociation), 15 min 37 C; 5% PAGE in 0.5x TBE; settings: protein: recombinant; tags: His6 (pET28-derived pKLB28); chain copies: 2; label: 5'-Cy3 on strand 1; 5' overhang 4 nt at both ends
# ParB [3] = biological target: T1, ParB; assay: EMSA; hierarchy: below parS1/4, equal to parS7, parS9; 10 mM Tris-HCl pH 7.5, 0.5 mM DTT, 50 mM KCl, 1 mM MgCl2, 20 ul, 6 pmol labelled DNA, 18 pmol nonspecific competitor (titrations) or 240 pmol ParB plus 18-180 pmol unlabelled parS2 (dissociation), 15 min 37 C; 5% PAGE in 0.5x TBE; settings: protein: recombinant; tags: His6 (pET28-derived pKLB28); chain copies: 2; label: 5'-Cy3 on strand 1; 5' overhang 4 nt at both ends
# ParB [4] = biological target: T1, ParB; assay: EMSA; second in hierarchy; competed by unlabelled parS2; 10 mM Tris-HCl pH 7.5, 0.5 mM DTT, 50 mM KCl, 1 mM MgCl2, 20 ul, 6 pmol labelled DNA, 18 pmol nonspecific competitor (titrations) or 240 pmol ParB plus 18-180 pmol unlabelled parS2 (dissociation), 15 min 37 C; 5% PAGE in 0.5x TBE; settings: protein: recombinant; tags: His6 (pET28-derived pKLB28); chain copies: 2; label: 5'-Cy3 on strand 1; 5' overhang 4 nt at both ends
# ParB [5] = biological target: T1, ParB; assay: EMSA; no specific complex; nonspecific smearing at ParB >5 uM; 10 mM Tris-HCl pH 7.5, 0.5 mM DTT, 50 mM KCl, 1 mM MgCl2, 20 ul, 6 pmol labelled DNA, 18 pmol nonspecific competitor (titrations) or 240 pmol ParB plus 18-180 pmol unlabelled parS2 (dissociation), 15 min 37 C; 5% PAGE in 0.5x TBE; settings: protein: recombinant; tags: His6 (pET28-derived pKLB28); chain copies: 2; label: 5'-Cy5 on strand 1; blunt
# ParB [6] = biological target: T1, ParB; assay: EMSA; hierarchy: below parS10, above parS5; 10 mM Tris-HCl pH 7.5, 0.5 mM DTT, 50 mM KCl, 1 mM MgCl2, 20 ul, 6 pmol labelled DNA, 18 pmol nonspecific competitor (titrations) or 240 pmol ParB plus 18-180 pmol unlabelled parS2 (dissociation), 15 min 37 C; 5% PAGE in 0.5x TBE; settings: protein: recombinant; tags: His6 (pET28-derived pKLB28); chain copies: 2; label: 5'-Cy3 on strand 1; 5' overhang 4 nt at both ends
# ParB [7] = biological target: T1, ParB; assay: EMSA; no significant difference from wt parS5; unlabelled parS2 competitor; 10 mM Tris-HCl pH 7.5, 0.5 mM DTT, 50 mM KCl, 1 mM MgCl2, 20 ul, 6 pmol labelled DNA, 18 pmol nonspecific competitor (titrations) or 240 pmol ParB plus 18-180 pmol unlabelled parS2 (dissociation), 15 min 37 C; 5% PAGE in 0.5x TBE; settings: protein: recombinant; tags: His6 (pET28-derived pKLB28); chain copies: 2; label: 5'-Cy5 on strand 1; 5' overhang 4 nt at both ends
# ParB [8] = biological target: T1, ParB; assay: EMSA; highest in affinity hierarchy; 10 mM Tris-HCl pH 7.5, 0.5 mM DTT, 50 mM KCl, 1 mM MgCl2, 20 ul, 6 pmol labelled DNA, 18 pmol nonspecific competitor (titrations) or 240 pmol ParB plus 18-180 pmol unlabelled parS2 (dissociation), 15 min 37 C; 5% PAGE in 0.5x TBE; settings: protein: recombinant; tags: His6 (pET28-derived pKLB28); chain copies: 2; label: 5'-Cy3 on strand 1; 5' overhang 4 nt at both ends
# ParB [9] = biological target: T1, ParB; assay: EMSA; lowest of the wt sites in hierarchy; 10 mM Tris-HCl pH 7.5, 0.5 mM DTT, 50 mM KCl, 1 mM MgCl2, 20 ul, 6 pmol labelled DNA, 18 pmol nonspecific competitor (titrations) or 240 pmol ParB plus 18-180 pmol unlabelled parS2 (dissociation), 15 min 37 C; 5% PAGE in 0.5x TBE; settings: protein: recombinant; tags: His6 (pET28-derived pKLB28); chain copies: 2; label: 5'-Cy3 on strand 1; 5' overhang 4 nt at both ends
# ParB [10] = biological target: T1, ParB; assay: EMSA; hierarchy: below parS1/4, equal to parS8, parS9; 10 mM Tris-HCl pH 7.5, 0.5 mM DTT, 50 mM KCl, 1 mM MgCl2, 20 ul, 6 pmol labelled DNA, 18 pmol nonspecific competitor (titrations) or 240 pmol ParB plus 18-180 pmol unlabelled parS2 (dissociation), 15 min 37 C; 5% PAGE in 0.5x TBE; settings: protein: recombinant; tags: His6 (pET28-derived pKLB28); chain copies: 2; label: 5'-Cy3 on strand 1; 5' overhang 4 nt at both ends; one mismatch as printed
binder,measurement,setting,value
parS9 (dsDNA) DNA 1: AATTCAAGCTTTGTTCCACGAGGAAGAG DNA 2: TCGACTCTTCCTCGTGGAACAAAGCTTG,binding result,ParB [1],binds
parS10 (dsDNA) DNA 1: AATTCAAGCTTTGTTCCACAGGGAACAG DNA 2: TCGACTGTTCCCTGTGGAACAAAGCTTG,binding result,ParB [2],binds
parS8 (dsDNA) DNA 1: AATTCAAGCTTTGTTCCACGAGGCACAG DNA 2: TCGACTGTGCCTCGTGGAACAAAGCTTG,binding result,ParB [3],binds
parS1/parS4 (dsDNA) DNA 1: AATTCAAGCTTTGTTCCACGTGGAACCG DNA 2: TCGACGGTTCCACGTGGAACAAAGCTTG,binding result,ParB [4],binds
nonspecific control (dsDNA) DNA 1: GATAGCTCTTTGCCATTAAC DNA 2: GTTAATGGCAAAGAGCTATC,binding result,ParB [5],no binding
parS6 (dsDNA) DNA 1: AATTCAAGCTTCGTTCCACGTGGAAGAG DNA 2: TCGACTCTTCCACGTGGAACGAAGCTTG,binding result,ParB [6],binds
parS5* (dsDNA) DNA 1: AATTCAAGCTTTATTGTATATGGAGCAG DNA 2: TCGACTGCTCCATATACAATAAAGCTTG,binding result,ParB [7],binds
parS2/parS3 (dsDNA) DNA 1: AATTCAAGCTTTGTTCCACGTGGAACAG DNA 2: TCGACTGTTCCACGTGGAACAAAGCTTG,binding result,ParB [8],binds
parS5 (dsDNA) DNA 1: AATTCAAGCTTTGTTCTACATGGAACAG DNA 2: TCGACTGTTCCATGTAGAACAAAGCTTG,binding result,ParB [9],binds
parS7 (dsDNA) DNA 1: AATTCAAGCTTTGTTCCACGAGGAACCG DNA 2: TCGACCGTTCCTCGTGGAACAAAGCTTG,binding result,ParB [10],binds
